These are literature values, as cited in article PMC11190312.

Series [1] deals with nucleoprotein (SARS-CoV-1) (UniProt P59595). Particulars: cited from earlier work.
In series [2] the target is nucleoprotein (SARS-CoV-2) (UniProt P0DTC9). Particulars: cited from earlier work.

By Kd is commonly meant the concentration at which binding is half-saturated. Turning to MASP-2 (from UniProt O00187), the Kd in series [1] was 268 nM; in series [2] it was 514 nM.
